In the series the test system is Bacillus subtilis. Put plainly: cleaved RNA product abundance (RNA/gDNA barcode ratio) relative to median wild-type variant (ratio to wild type); higher = more accumulation of the downstream cleavage product. Conditions: cleavage site: cggR-gapA (positions -7 to +36 mutated). The method in brief:
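Cleaved product abundance for each construct is its RNA-to-gDNA barcode ratio, scaled to the median construct carrying the unmutated site. Cleaved RNA was isolated on a gel, reverse transcribed and barcode-sequenced, with genomic DNA barcodes sequenced alongside and UMIs collapsed. The reporters were truncated aprE or tetM mRNAs with barcoded, mutagenized RNase Y cleavage-site windows integrated into the B. subtilis chromosome, and cultures grew in LB at 37°C from OD600 0.0003 to 0.3.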

Where [1] appears, read: experiment (reporter, strain, medium): exp 4a: truncated aprE reporter, strain BJT201 with 2% xylose (RNase J1 expressed).
The mark [2] stands for this setting: experiment (reporter, strain, medium): exp 2b: truncated aprE reporter, strain BJT200.
The mark [3] stands for this setting: experiment (reporter, strain, medium): exp 6: tetM reporter, strain 168.

With “ACAGACGAAGGAGCCGCAAAGAAGTTATTAAGGGATGCATAATCTCTCAATATAAATATCTCTCACTTATTTAAA”, the “cleaved RNA product abundance” value under setting [1] was 0.725. In the case of “ACAGACGAAGGAGCCGCAAAGAAGTTATTAAGGGATGCATAATTCCTCAATATAAATATCTCTCACTTATTTAAA”, under setting [1], the “cleaved RNA product abundance” value turned out to be 0.559. Still for that read-out and setting: then “ACAGACGAAGGAGCCGCAAAGAAGTTATTAAGGGATGCATCATCCCTCAATATAAATATCTCTCACTTATTTAAA”, with 0.307; and “ACAGACGAAGGAGCCGCAAAGAAGTTATTAAGGGATGCGTAATCCCTCAATATAAATATCTCTCACTTATTTAAA”, with 0.629.

Turning to “ACAGACGAAGGAGCCGCAAAGAAGTTATTAAGGGATGGATAATACCTCAATATAAATATCTCTCACTTATTTAAA”, under setting [1], the “cleaved RNA product abundance” value was found to be 0.103.

In the case of “ACAGACGAAGGAGCCGCAAAGAAGTTATTAAGGGATGGATAATCCATCAATATAAATATCTCTCACTTATTTAAA”, the “cleaved RNA product abundance” value under setting [1] was 0.189. Still for that read-out and setting: the value for “ACAGACGAAGGAGCCGCAAAGAAGTTATTAAGGGATGGATAATCCCTAAATATAAATATCTCTCACTTATTTAAA” was 0.553. The same measure, in the same setting: then “ACAGACGAAGGAGCCGCAAAGAAGTTATTAAGGGATGGATAATCCCTCAATATAAAAATCTCTCACTTATTTAAA”, with 0.356. Take “ACAGACGAAGGAGCCGCAAAGAAGTTATTAAGGGATGGATAATCCCTCAATATAAATATCTCTCACTTATTTAAA”: the “cleaved RNA product abundance” value reads like this: under setting [2], 0.623; under setting [1], 0.884; under setting [3], 0.969. For “ACAGACGAAGGAGCCGCAAAGAAGTTATTAAGGGATGGATAATCCCTCGATATAAATATCTCTCACTTATTTAAA”, the “cleaved RNA product abundance” value under setting [1] was 0.235. For the sequence “ACAGACGAAGGAGCCGCAAAGAAGTTATTAAGGGATGGATAATCCGTCAATATAAATATCTCTCACTTATTTAAA”, the “cleaved RNA product abundance” value under setting [1] came out at 0.149. Still for that read-out and setting: then “ACAGACGAAGGAGCCGCAAAGAAGTTATTAAGGGATGGATAATTCCTCAATATAAATATCTCTCACTTATTTAAA”, with 0.58.

Turning to “ACAGACGAAGGAGCCGCAAAGAAGTTATTAAGGGATGGATACTCCCTCAATATAAATATCTCTCACTTATTTAAA”, under setting [2], the “cleaved RNA product abundance” value was 0.263. Turning to “ACAGACGAAGGAGCCGCAAAGAAGTTATTAAGGGATGTAAAATCCCTCAATATAAATATCTCTCACTTATTTAAA”, the “cleaved RNA product abundance” value under setting [1] is 1.04. On the same count and under the same terms, the value for “ACAGACGAAGGAGCCGCAAAGAAGTTATTAAGGGATGTAGAATCCCTCAATATAAATATCTCTCACTTATTTAAA” was 0.768. Regarding “ACAGACGAAGGAGCCGCAAAGAAGTTATTAAGGGATGTATAAACCCTCAATATAAATATCTCTCACTTATTTAAA”, the “cleaved RNA product abundance” value reads like this: under setting [2], 0.448; under setting [1], 0.592. On the same counts, the results for “ACAGACGAAGGAGCCGCAAAGAAGTTATTAAGGGATGTATAATACCTCAATATAAATATCTCTCACTTATTTAAA” are 0.139 and 0.103. On the same counts, the results for “ACAGACGAAGGAGCCGCAAAGAAGTTATTAAGGGATGTATAATCCATCAATATAAATATCTCTCACTTATTTAAA” are 0.175 and 0.238.

Regarding “ACAGACGAAGGAGCCGCAAAGAAGTTATTAAGGGATGTATAATCCCACAATATAAATATCTCTCACTTATTTAAA”, the “cleaved RNA product abundance” value under setting [1] was found to be 0.308. As to “ACAGACGAAGGAGCCGCAAAGAAGTTATTAAGGGATGTATAATCCCCCAATATAAATATCTCTCACTTATTTAAA”, the “cleaved RNA product abundance” value under setting [2] amounted to 0.205. For “ACAGACGAAGGAGCCGCAAAGAAGTTATTAAGGGATGTATAATCCCTAAATATAAATATCTCTCACTTATTTAAA”, the “cleaved RNA product abundance” value reads like this: under setting [2], 0.551; under setting [1], 0.748. On the same counts, the results for “ACAGACGAAGGAGCCGCAAAGAAGTTATTAAGGGATGTATAATCCCTCAAAATAAATATCTCTCACTTATTTAAA” are 0.267 and 0.344. Take “ACAGACGAAGGAGCCGCAAAGAAGTTATTAAGGGATGTATAATCCCTCAATATAAAAATCTCTCACTTATTTAAA”: the “cleaved RNA product abundance” value under setting [1] turned out to be 0.439.

For “ACAGACGAAGGAGCCGCAAAGAAGTTATTAAGGGATGTATAATCCCTCAATATAAATATCTCTCACTTATTTAAA”, the “cleaved RNA product abundance” value came out at 0.943 under setting [2], 0.978 under setting [1] and 0.798 under setting [3]. With “ACAGACGAAGGAGCCGCAAAGAAGTTATTAAGGGATGTATAATCCCTCAATATAAATCTCTCTCACTTATTTAAA”, the “cleaved RNA product abundance” value under setting [1] stood at 0.82. For the sequence “ACAGACGAAGGAGCCGCAAAGAAGTTATTAAGGGATGTATAATCCCTCAATATATATATCTCTCACTTATTTAAA”, the “cleaved RNA product abundance” value under setting [2] was determined as 0.631. In the case of “ACAGACGAAGGAGCCGCAAAGAAGTTATTAAGGGATGTATAATCCCTCAATTTAAATATCTCTCACTTATTTAAA”, the “cleaved RNA product abundance” value reads like this: under setting [2], 0.218; under setting [1], 0.146.

As for “ACAGACGAAGGAGCCGCAAAGAAGTTATTAAGGGATGTATAATCCCTCAGTATAAATATCTCTCACTTATTTAAA”, the “cleaved RNA product abundance” value is, setting by setting: under setting [2], 0.218; under setting [1], 0.237.

Take “ACAGACGAAGGAGCCGCAAAGAAGTTATTAAGGGATGTATAATCCCTCATTATAAATATCTCTCACTTATTTAAA”: the “cleaved RNA product abundance” value under setting [1] was 0.387.

For the sequence “ACAGACGAAGGAGCCGCAAAGAAGTTATTAAGGGATGTATAATCCCTCCATATAAATATCTCTCACTTATTTAAA”, the “cleaved RNA product abundance” value under setting [2] amounted to 0.162. Take “ACAGACGAAGGAGCCGCAAAGAAGTTATTAAGGGATGTATAATCCCTGAATATAAATATCTCTCACTTATTTAAA”: the “cleaved RNA product abundance” value under setting [1] was 0.461. Turning to “ACAGACGAAGGAGCCGCAAAGAAGTTATTAAGGGATGTATAATCCCTTAATATAAATATCTCTCACTTATTTAAA”, the “cleaved RNA product abundance” value under setting [1] was found to be 0.445.

“ACAGACGAAGGAGCCGCAAAGAAGTTATTAAGGGATGTATAATCCGTCAATATAAATATCTCTCACTTATTTAAA”: the “cleaved RNA product abundance” value under setting [1] came to 0.187. Same read-out and setting: then “ACAGACGAAGGAGCCGCAAAGAAGTTATTAAGGGATGTATAATCCTTCAATATAAATATCTCTCACTTATTTAAA”, with 0.922; and “ACAGACGAAGGAGCCGCAAAGAAGTTATTAAGGGATGTATAATCGCTCAATATAAATATCTCTCACTTATTTAAA”, with 0.173. On to “ACAGACGAAGGAGCCGCAAAGAAGTTATTAAGGGATGTATAATCTCTCAATATAAATATCTCTCACTTATTTAAA”, for which the “cleaved RNA product abundance” value by setting is: under setting [2], 0.708; under setting [1], 0.513. With “ACAGACGAAGGAGCCGCAAAGAAGTTATTAAGGGATGTATAATTCCTCAATATAAATATCTCTCACTTATTTAAA”, under setting [1], the “cleaved RNA product abundance” value stood at 0.576. On the same count and under the same terms, then “ACAGACGAAGGAGCCGCAAAGAAGTTATTAAGGGATGTATATTCCCTCAATATAAATATCTCTCACTTATTTAAA”, with 0.88; and “ACAGACGAAGGAGCCGCAAAGAAGTTATTAAGGGATGTGTAATCCCTCAATATAAATATCTCTCACTTATTTAAA”, with 0.526. In the case of “ACAGACGAAGGAGCCGCAAAGAAGTTATTAAGGGATTAAAAATCCCTCAATATAAATATCTCTCACTTATTTAAA”, the “cleaved RNA product abundance” value under setting [2] came out at 0.941 and the “cleaved RNA product abundance” value under setting [1] turned out to be 0.629.

As for “ACAGACGAAGGAGCCGCAAAGAAGTTATTAAGGGATTAACAATCCCTCAATATAAATATCTCTCACTTATTTAAA”, the “cleaved RNA product abundance” value turned out to be 1.08 under setting [2] and 0.961 under setting [1].

Turning to “ACAGACGAAGGAGCCGCAAAGAAGTTATTAAGGGATTAAGAATCCCTCAATATAAATATCTCTCACTTATTTAAA”, the “cleaved RNA product abundance” value under setting [1] was 1.06. On to “ACAGACGAAGGAGCCGCAAAGAAGTTATTAAGGGATTAATAAACCCTCAATATAAATATCTCTCACTTATTTAAA”, for which the “cleaved RNA product abundance” value is 0.559 under setting [2] and 0.575 under setting [1]. On the same counts, the results for “ACAGACGAAGGAGCCGCAAAGAAGTTATTAAGGGATTAATAACCCCTCAATATAAATATCTCTCACTTATTTAAA” are 0.749 and 0.72. On the same counts, the results for “ACAGACGAAGGAGCCGCAAAGAAGTTATTAAGGGATTAATAAGCCCTCAATATAAATATCTCTCACTTATTTAAA” are 0.453 and 0.667. On the same counts, the results for “ACAGACGAAGGAGCCGCAAAGAAGTTATTAAGGGATTAATAATACCTCAATATAAATATCTCTCACTTATTTAAA” are 0.139 and 0.187. As to “ACAGACGAAGGAGCCGCAAAGAAGTTATTAAGGGATTAATAATCACTCAATATAAATATCTCTCACTTATTTAAA”, the “cleaved RNA product abundance” value under setting [1] came out at 0.129. For “ACAGACGAAGGAGCCGCAAAGAAGTTATTAAGGGATTAATAATCCATCAATATAAATATCTCTCACTTATTTAAA”, the “cleaved RNA product abundance” value reads like this: under setting [2], 0.401; under setting [1], 0.288. On the same counts, the results for “ACAGACGAAGGAGCCGCAAAGAAGTTATTAAGGGATTAATAATCCCACAATATAAATATCTCTCACTTATTTAAA” are 0.238 and 0.347. On to “ACAGACGAAGGAGCCGCAAAGAAGTTATTAAGGGATTAATAATCCCCCAATATAAATATCTCTCACTTATTTAAA”, for which the “cleaved RNA product abundance” value under setting [1] was 0.272. Same read-out and setting: then “ACAGACGAAGGAGCCGCAAAGAAGTTATTAAGGGATTAATAATCCCGCAATATAAATATCTCTCACTTATTTAAA”, with 0.225. Turning to “ACAGACGAAGGAGCCGCAAAGAAGTTATTAAGGGATTAATAATCCCTAAATATAAATATCTCTCACTTATTTAAA”, the “cleaved RNA product abundance” value is, setting by setting: under setting [2], 0.535; under setting [1], 0.745. On the same counts, the results for “ACAGACGAAGGAGCCGCAAAGAAGTTATTAAGGGATTAATAATCCCTCAAAATAAATATCTCTCACTTATTTAAA” are 0.334 and 0.419.
